Assays:
[1] = biological target: T1, RSV postfusion F (postF), F ΔFP trimer, subtype A (Respiratory Syncytial Virus, subtype A, UniProt P03420 26-513); assay: BLI, apparent IgG KD (Table 9A)
[2] = biological target: T2, RSV prefusion F (preF), DS-Cav1 stabilized trimer, subtype A (Respiratory Syncytial Virus, subtype A, UniProt P03420 26-513); assay: BLI, apparent IgG KD (Table 9A)
[3] = biological target: T3, RSV F on RSV subtype A virus (RSV-A2) (Respiratory Syncytial Virus, subtype A, …, UniProt P03420 26-574); assay: cell-based or functional assay
[4] = biological target: RSV postfusion F (postF), F ΔFP (Respiratory Syncytial Virus, UniProt P03420 26-513); assay: BLI (ForteBio Octet), IgG on anti-human IgG biosensors, 100 nM antigen, apparent (IgG) KD
[5] = biological target: Respiratory Syncytial Virus fusion glycoprotein (RSV F) on RSV-A2 virus (Respiratory Syncytial Virus, UniProt P03420 26-574); assay: cell-based or functional assay
[6] = biological target: RSV prefusion F (preF), DS-Cav1 (Respiratory Syncytial Virus, UniProt P03420 26-513); assay: BLI (ForteBio Octet), IgG on anti-human IgG biosensors
[7] = biological target: RSV prefusion F (preF), DS-Cav1 (respiratory syncytial virus, UniProt P03420 26-513); assay: BLI, IgG on sensor
[8] = biological target: RSV fusion glycoprotein (RSV F) on RSV-A2 virus (respiratory syncytial virus, UniProt P03420 26-574); assay: cell-based or functional assay
[9] = biological target: RSV postfusion F (postF), F deltaFP (respiratory syncytial virus, UniProt P03420 26-513); assay: BLI, IgG on sensor, 100 nM antigen
[10] = biological target: T2, RSV prefusion F (preF), DS-Cav1 …; assay: BLI, IgG on anti-human IgG sensors
[11] = biological target: T1, RSV postfusion F (postF), F ΔFP trimer, …; assay: BLI, IgG on anti-human IgG sensors, 100 nM antigen, apparent KD
[12] = biological target: T3, RSV F on RSV subtype A virus (RSV-A2); assay: cell-based or functional assay; remark: listed apart in the source
[13] = biological target: T4, preF (DS-Cav1) with a C-terminal 8X HisTag and AviTag (Respiratory Syncytial Virus, UniProt P03420 26-513); assay: SPR, preF (DS-Cav1) captured on NTA chip, Fab in solution, 1:1 model
T4 construct: not shown: C-terminal 8X HisTag and AviTag

[14] = biological target: T5, postF (RSV F ΔFP) with a C-terminal HRV 3C cleavage site, 8xHisTag and StrepTagII (Respiratory Syncytial Virus, UniProt P03420 26-109; P03420 147-513); assay: SPR, postF captured on NTA chip, Fab in solution, steady-state fit
T5 construct: also called postfusion F; not shown: C-terminal HRV 3C cleavage site, 8xHisTag and StrepTagII

[15] = biological target: RSV F on RSV subtype B virus (mKate-RSV B 18537) (Respiratory Syncytial Virus, subtype B, …, UniProt P13843 26-574); assay: cell-based or functional assay

B1: ADI-41596 (antibody, V domains shown)
VH: QVQLQQWGAGLLKPSETLSLTCAVYGDSFSGYFWTWIRQPPGKGLEWIGEINLSGSTNYNPSLKSRVTILVDTSKNQFSLKLSSVTAADTAVYYCARGLHVSDDQDSSGYYFHPGSFDYWGQGTLVTVSS
VL: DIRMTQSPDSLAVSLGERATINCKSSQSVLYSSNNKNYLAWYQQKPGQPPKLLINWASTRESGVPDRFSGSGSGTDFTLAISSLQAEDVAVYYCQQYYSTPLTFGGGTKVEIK
notes: also called Ab 870; Antibody Number 870
How did the Kd [1] turn out when B1 was run?
Its Kd is 0.44 nM.

And the Kd [2]?
The Kd was 0.3 nM.

And the “Neutralization - RSV A2 IC50 (pM)” value [3]?
The value was 180 pM.

And the “neut IC50 (ug/ml) subtype A (wright)” value [3]?
The value was 0.054 µg/mL.

B2: ADI-43648 (antibody, V domains shown)
VH: EVQLVQSGAEVKKPGASVKVSCKASGYTFTSYDINWVRQATGQGLEWMGWMNPNSGNTGYAQKFQGRVTMTRNTSISTAYMELSSLRSEDTAVYYCATRPAALDYWGQGTLVTVSS
VL: QPVLTQPLSVSVALGQTARITCGGNNIGSKNVHWYQQKPGQAPVLIIYRDSNRPSGIPERFSGSNSGNTATLTISRAQAGDEADYYCQVWDSSTWVFGGGTKLTVL
What does the source list for B2?
Kd [4]: 28.6 nM; Neutralization IC50 (RSV subtype A) [5]: > 25 µg/mL; binding result [6]: no binding

B3: ADI-41435 (antibody, V domains shown)
VH: EVQLLESGGGLVKPGGSLRLSCAASGFTFSSYSLNWVRQAPGKGLEWVSSISSSGTYIFYADSVKGRFTISRDNAKDSLFLQMNSLRAEDTAVYYCARARDMGNYDILTGYYRVDAFDIWGQGTMVTVSS
VL: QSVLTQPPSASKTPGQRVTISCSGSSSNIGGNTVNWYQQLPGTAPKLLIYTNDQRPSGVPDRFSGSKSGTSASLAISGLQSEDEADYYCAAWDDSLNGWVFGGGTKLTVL
notes: IgG1
Which results are given for B3?
binding result [7]: no binding (tested: 100 nM antigen); Neutralization IC50 (RSV subtype A) [8]: > 25 µg/mL; Kd [9]: 3.47 nM

B4: ADI-41229 (antibody, V domains shown)
VH: QVQLVQSGGGVVQPGRSLKLSCAASGFTFKSYGMHWVRQAPGKGLEWVAVISYDEINKYYADSVKGRFTISRDYSKNTLSLQMNSLTTEDTAMYYCAKPKTTGYYYLDAFDFWGQGTMVTVSS
VL: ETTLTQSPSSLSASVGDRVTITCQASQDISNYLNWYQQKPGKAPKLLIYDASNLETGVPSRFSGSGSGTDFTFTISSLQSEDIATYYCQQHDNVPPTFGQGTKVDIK
notes: also called Ab 551; Antibody Number 551
Which Kd [1] does the source give for B4 here?
The Kd was 0.71 nM.

What about the Kd [2] of the same binder?
Its Kd is 1.1 nM.

What about the “Neutralization - RSV A2 IC50 (pM)” value [3] of the same binder?
The value was 228 pM.

And the “neut IC50 (ug/ml) subtype A (wright)” value [3]?
The value was 0.066 µg/mL.

B5: ADI-43639 (antibody, V domains shown)
VH: QVQLVQSGSELKKPGASVKVSCKASGYTFTSYAMNWVRQAPGQGLEWMGWINTNTGNPTYAQGFTGRFVFSLDTSVSTAYLQISSLKAEDTAVYYCAAYGIHDAFDIWGQGTMVTVSS
VL: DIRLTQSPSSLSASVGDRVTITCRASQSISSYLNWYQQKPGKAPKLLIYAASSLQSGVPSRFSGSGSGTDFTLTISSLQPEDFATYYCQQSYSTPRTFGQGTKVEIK
What does the source list for B5?
binding result [10]: no binding (tested: 100 nM antigen); Kd [11]: 233 nM; Neutralization IC50 (RSV subtype A) [12]: > 25 µg/mL

B6: ADI-19425 Fab variant, light chain Y31A (Fab, V domains shown)
VH: EVQLVESGGGLVKPGGSLRLSCAASGFTFSSYSMNWVRQAPGKGLEWVSSISSSSSYIYYADSVKGRFTISRDNAKNSLYLQMNSLRAEDTAVYYCARLGYCSGGSCHFDYWGQGTLVTVSS
VL: QPVLTQPPSVSGAPGQRVTISCTGSSSNIGAGADVHWYQQLPGTAPKLLIYGNSNRPSGVPDRFSGSKSGTSASLAITGLQAEDEADYYCQSYDSSLSGFYVFGTGTKLTVL
notes: also called Y33A
B6 was tested. Which “fold reduction in affinity relative to ADI-19425 Fab” value [13] did it give?
Its value is > 20 fold.

B7: ADI-19425 Fab variant, light chain Y91A (Fab, V domains shown)
VH: EVQLVESGGGLVKPGGSLRLSCAASGFTFSSYSMNWVRQAPGKGLEWVSSISSSSSYIYYADSVKGRFTISRDNAKNSLYLQMNSLRAEDTAVYYCARLGYCSGGSCHFDYWGQGTLVTVSS
VL: QPVLTQPPSVSGAPGQRVTISCTGSSSNIGAGYDVHWYQQLPGTAPKLLIYGNSNRPSGVPDRFSGSKSGTSASLAITGLQAEDEADYYCQSADSSLSGFYVFGTGTKLTVL
notes: also called Y93A
How did the “fold reduction in affinity relative to ADI-19425 Fab” value [13] turn out when B7 was run?
The value was > 80 fold.

B8: ADI-43647 (antibody, V domains shown)
VH: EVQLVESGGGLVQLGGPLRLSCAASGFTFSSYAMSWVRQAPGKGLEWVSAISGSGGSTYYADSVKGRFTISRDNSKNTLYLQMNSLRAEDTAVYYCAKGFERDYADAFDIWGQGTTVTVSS
VL: DIRMTQSPSSVSASVGDRVTITCRASQGISSWLAWYQQKPGKAPKLLIYAASSLQSGVPSRFSGSGSGTDFTLTISSLQPEDFATYYCQQANSFPITFGQGTRLEIK
notes: also called Ab 828; Antibody Number 828
B8 was tested. Which Kd [4] did it give?
The Kd was 44.6 nM.

What about the “Neutralization IC50 (RSV subtype A)” value [5] of the same binder?
Its value is > 25 µg/mL.

Does B8 bind [6]?
Result: no binding

B9: ADI-14359 R50L Fab (germline reverted variant) (Fab, V domains shown)
VH: QVQLVQSGPALVKPTQTLTLTCTFSGFSLSTSGMCVSWIRQPPGKALEWLALIDWDDDKYYSTSLKTRLTISKDTSKNQVVLTMTNMDPVDTATYYCARATNYDSSGYYSLYFDYWGQGTLVTVSS
VL: not shown
For B9, which “fold reduction in affinity relative to ADI-14359 Fab” value [14] is on record?
Its value is > 30 fold.

B10: ADI-14405 (antibody, V domains shown)
VH: QVQLVQSGTEVKKPGASVKVSCKASGYTFTNYDISWVRQAPGQGLEWMGWISGSTGNTIYAQNLQGRLTMTTDTSTSTAYMELRSLRSDDTAIYYCARDNVGYASGNYFDYWGQGTLVTVSS
VL: SYVLTQPPSVSVAPGKTARIPCGGNNIGSKSVHWYQQRPGQAPVLVIYYDSVRPSGIPERFSGSNSGNTATLTISTVEAGDEADFYCQVWDSSRDHEVFGGGTKLTVL
notes: also called Ab 71; Antibody Number 71
Which results are given for B10?
Kd [1]: 12 nM; Kd [2]: 0.14 nM; neut IC50 (ug/ml) subtype B (graham) [15]: 0.04 µg/mL; Neutralization - RSV A2 IC50 (pM) [3]: 58.3 pM; neut IC50 (ug/ml) subtype A (graham) [3]: 0.04 µg/mL

B11: ADI-20975 (antibody, V domains shown)
VH: QVQLVESGTHVKKPGASVKVSCEASDDTFNNKGIVWVRQAPGQGLEWMGWIRPNNGNTKYAQKFQGRVTMTTDASTNTAYMELRSLRSGDTAVYYCAREQFKWNDFYFDYWGQGILVTVSS
VL: SYELMQPPSVSVAPGQTATITCGGSNIGSETVHWYQQKPGQAPVLVVHDDTDRPSGIPERFSGSNSGNTATLTISGVEAGDEADFYCQVRDSRTDDVVFGGGTKLTVL
Which Kd [1] does the source give for B11 here?
The Kd was 0.15 nM.

What about the Kd [2] of the same binder?
The Kd was 0.092 nM.

And the “neut IC50 (ug/ml) subtype B (graham)” value [15]?
Its value is 0.49 µg/mL.

And the “Neutralization - RSV A2 IC50 (pM)” value [3]?
The value was 67 pM.

What about the “neut IC50 (ug/ml) subtype A (graham)” value [3] of the same binder?
The value was 0.05 µg/mL.

B12: ADI-41221 (antibody, V domains shown)
VH: EVQLLESGGGLVKPGGSLRLSCAASGFTFSDYTMNWVRQAPGKGLEWVSSISITSSHIYYADSVKGRFTISRDNAKNSLYLQINSLRAEDTAAYYCARELGFASSSYSYYYGMDVWGQGTTVTVSS
VL: QSALTQPRSVSGSPGQSVTISCTGTSSDVGDYNSVSWYQQHPGTAPKLIIFDVTQRPSGVPDRFSGSKSANTASLTISGLQPEDEADYYCCSFAGNYVFGTGTKVTVL
With B12 as the binder, how does the Kd [1] read?
The Kd was 0.32 nM.

And the Kd [2]?
The Kd was 0.3 nM.

What about the “Neutralization - RSV A2 IC50 (pM)” value [3] of the same binder?
The value was 65.4 pM.

And the “neut IC50 (ug/ml) subtype A (wright)” value [3]?
Its value is 0.04 µg/mL.

B13: ADI-43638 (antibody, V domains shown)
VH: QVQLQQWGAGLLKPSETLSLTCAVYGGSFSGYYWSWIRQPPGKGLEWIGEINHSGSTNYNPSLKSRVTISVDTSKNQFSLKLSSVTAADTAVYYCARGVPVLRYFDWLRFGYGMDVWGQGTTVTVSS
VL: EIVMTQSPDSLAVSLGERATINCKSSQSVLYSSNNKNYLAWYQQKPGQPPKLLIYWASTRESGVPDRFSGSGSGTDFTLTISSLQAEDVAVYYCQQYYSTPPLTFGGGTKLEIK
Does B13 bind [10]?
Result: no binding (tested: 100 nM antigen)

What about the Kd [11] of the same binder?
The Kd was 9.93 nM.

And the “Neutralization IC50 (RSV subtype A)” value [12]?
Its value is > 25 µg/mL.

— patent publication US20260258115A1 (MAPP BIOPHARMACEUTICAL, published 2026)
